Test results reported in article PMC9173642 (PLoS ONE, 2022).

B2: FLrArc-7A, full-length rat Arc with residues 113-119 mutated to Ala (natural protein, UniProt Q63053 1-396, looked up)
chain: MELDHMTTGGLHAYPAPRGGPAAKPNVILQIGKCRAEMLEHVRRTHRHLLTEVSKQVERELKGLHRSVGKLENNLDGYVPTGDSQRWKKSIKACLCRCQETIANLERWVKREAAAAAAAFYRLERWADRLESMGGKYPVGSEPARHTVSVGVGGPEPYCQEADGYDYTVSPYAITPPPAAGELPEQESVGAQQYQSWVPGEDGQPSPGVDTQIFEDPREFLSHLEEYLRQVGGSEEYWLSQIQNHMNGPAKKWWEFKQGSVKNWVEFKKEFLQYSEGTLSREAIQRELDLPQKQGEPLDQFLWRKRDLYQTLYVDAEEEEIIQYVVGTLQPKFKRFLRHPLPKTLEQLIQRGMEVQDGLEQAAEPSVTPLPTEDETEALTPALTSESVASDRTQPE
notes: Expressed from pHMGWA as His6-MBP fusion; Dimer by SAXS; also called poly-Ala rArc mutant; FLArc-7A; source: E. coli BL21(DE3)-RIPL, purified (details in S1 Protocol)

Key:
[1] = target: the molecule itself; experiment: SEC; analytical SEC; 2 nmol FLhArc (capsid-containing) with 1.5-fold molar excess of Nb; Superdex 200 Increase 10/300 GL; PBS; fractions on SDS-PAGE
[2] = target: the molecule itself; experiment: SEC-SAXS; FLrArc-7A alone and with Nb, SWING beamline, HPLC mode; 20 mM HEPES, 150 mM NaCl, 0.5 mM TCEP, pH 7.5 (rArc+H11 in 20 mM Tris, 150 mM NaCl, pH 7.4)
[3] = target: T1, human Arc C-terminal domain (hArc-CTD) (human, UniProt Q7LC44); experiment: SEC-SAXS; hArc-CTD alone and with Nb, BM29 beamline (ESRF), HPLC mode; conditions: both partners purified
T1 construct: His tag with a linker holding a TEV site; kept in the pull-down; not shown: His6, N-terminal, kept

[4] = target: FLrArc-7A, full-length rat Arc with residues 113-119 mutated to Ala (rat, UniProt Q63053, 113-119 MHVWREV to poly-Ala)
[5] = target: B2; experiment: ITC; 2 mM Stg peptide injected into 198 μM FLrArc-7A; 20 mM Tris-HCl pH 7.4, 150 mM NaCl; 1:1 binding model; conditions: both partners purified
[6] = target: rat Arc C-terminal domain as found in the crystals grown from FLrArc-7A (rArc-CTD) (rat, UniProt Q63053)
[7] = target: the molecule itself; experiment: SEC-SAXS; MBP-2rNT alone, SWING beamline, HPLC mode

B1: full-length human Arc (FLhArc), capsid-containing preparation (natural protein, UniProt Q7LC44 1-396, looked up)
chain: MELDHRTSGGLHAYPGPRGGQVAKPNVILQIGKCRAEMLEHVRRTHRHLLAEVSKQVERELKGLHRSVGKLESNLDGYVPTSDSQRWKKSIKACLCRCQETIANLERWVKREMHVWREVFYRLERWADRLESTGGKYPVGSESARHTVSVGVGGPESYCHEADGYDYTVSPYAITPPPAAGELPGQEPAEAQQYQPWVPGEDGQPSPGVDTQIFEDPREFLSHLEEYLRQVGGSEEYWLSQIQNHMNGPAKKWWEFKQGSVKNWVEFKKEFLQYSEGTLSREAIQRELDLPQKQGEPLDQFLWRKRDLYQTLYVDADEEEIIQYVVGTLQPKLKRFLRHPLPKTLEQLIQRGMEVQDDLEQAAEPAGPHLPVEDEAETLTPAPNSESVASDRTQPE
notes: Activity-regulated cytoskeleton-associated protein (Arc), human, full length, without any mutations; High-molecular-weight forms and capsids with nucleic acid content (260/280 ratio >1); also called capsid hArc; wild-type full length hArc; source: E. coli BL21 CodonPlus, purified (NiNTA, TEV cleavage, Talon)
binding result [1]: binds

B2
stoichiometry N [2]: 2

B3: NbArc-B12 (VHH)
VHH: EVQLLESGGGLVQAGGSLRLSCVASRGPFTTVTMGWYRQTPGKQRESVAHITSDGRANYADSVKGRFTISKDNATNTVYLQMNNLKREDTAVYYCNTIVWPRGPWGQGTQVTVSS
notes: From NanoTag Technologies, His6-TEV-Nb in pNT1433; also called sdAb B12; source: E. coli BL21(DE3), purified (NiNTA, TEV proteolysis, SEC); not shown: His6, N-terminal, cleaved
stoichiometry N [3]: 1

B4: NbArc-D4 (VHH)
VHH: EVQLVESGGGLVQAGGSLRLSCVASRGPFTTVTMGWYRQTPGRGRELVATINGGGGTRYADSVKGRFTISTDNAKNTVSLQMNSLKPEDTAVYYCNNDGYEWGVKKTYWGQGTQVTVSS
notes: From NanoTag Technologies, His6-TEV-Nb in pNT1433; also called sdAb D4; source: E. coli BL21(DE3), purified (NiNTA, TEV proteolysis, SEC); not shown: His6, N-terminal, cleaved
stoichiometry N [3]: 1

B5: E5 [NbArc-E5] (VHH)
VHH: EVQLQESGGGLVQAGGSLRLSCAASGSIFSGNAMGWYRQAPGKQREVVAVISAGNSSNYVDSVKGRFTISRDNAKNTVYLQMNSLKPEDTAVYYCNVVKRGPQWGMEWGKGTLVTVSS
binding result [4]: binds

B6: NbArc-E5 (VHH)
VHH: EVQLQESGGGLVQAGGSLRLSCAASGSIFSGNAMGWYRQAPGKQREVVAVISAGNSSNYVDSVKGRFTISRDNAKNTVYLQMNSLKPEDTAVYYCNVVKRGPQWGMEWGKGTLVTVSS
notes: From NanoTag Technologies, His6-TEV-Nb in pNT1433; also called Nb E5; sdAb E5; source: E. coli BL21(DE3), purified (NiNTA, TEV proteolysis, SEC); not shown: His6, N-terminal, cleaved
stoichiometry N [3]: 1

B7: NbArc-H11 (VHH)
VHH: EVQLLESGGGLVQAGDSLRLSCAASGRTFSAYAMGWFRQAPGKEREFVAAISWSGNSTYYADSVKGRFTISRDNAKNTVYLQMNSLKPEDTAIYYCAARKPMYRVDISKGQNYDYWGQGTQVTVSS
notes: From NanoTag Technologies, His6-TEV-Nb in pNT1433; long CDR3 with a P-x-Y motif (Pro103, Tyr105); also called Nb H11; sdAb H11; source: E. coli BL21(DE3), purified (NiNTA, TEV proteolysis, SEC); not shown: His6, N-terminal, cleaved
stoichiometry N [3]: 1

B8: stargazin (Stg) peptide (peptide)
peptide: Ac-RIPSYRYR-NH2
notes: peptide from the cytosolic tail of stargazin (Stg), auxiliary subunit of AMPA receptors
Kd [5]: 34.9 µM
dH [5]: -9.2 kcal/mol
stoichiometry N [5]: 1.09

B9: NbArc-B5 (VHH)
VHH: EVQLQESGGGLVEAGGSLRLSCAASGHTSSTVNMAWYRQAPGKEREWVARVFWTDGATYYSDSVKGRFTISRDNTKQRVNLQMNNLKPEDTAIYYCALRAPSSQRLYWGQGTQVTVSS
notes: From NanoTag Technologies, His6-TEV-Nb in pNT1433; also called sdAb B5; source: E. coli BL21(DE3), purified (NiNTA, TEV proteolysis, SEC); not shown: His6, N-terminal, cleaved
stoichiometry N [3]: 1

B10: C11 [NbArc-C11] (VHH)
VHH: EVQLVESGGGLVQAGGSLRLSCAASGRTSGALNVAWYRQATGKEREYVARLWWNDGTTYYSDSVKGRFTISSDNAKKIVYLQMNRLKPDDTAIYYCAVRTPSSQTLYWGQGTQVTVSS
binding result [6]: binds

B11: NbArc-C11 (VHH)
VHH: EVQLVESGGGLVQAGGSLRLSCAASGRTSGALNVAWYRQATGKEREYVARLWWNDGTTYYSDSVKGRFTISSDNAKKIVYLQMNRLKPDDTAIYYCAVRTPSSQTLYWGQGTQVTVSS
notes: From NanoTag Technologies, His6-TEV-Nb in pNT1433; also called Nb C11; sdAb C11; source: E. coli BL21(DE3), purified (NiNTA, TEV proteolysis, SEC); not shown: His6, N-terminal, cleaved
stoichiometry N [3]: 1

B12: MBP-2rNT, N-terminal domain of rat Arc (residues 24-137) with the poly-Ala mutation, fused to His6-MBP (domain or fragment, UniProt Q63053 24-137, looked up)
chain: KPNVILQIGKCRAEMLEHVRRTHRHLLTEVSKQVERELKGLHRSVGKLENNLDGYVPTGDSQRWKKSIKACLCRCQETIANLERWVKREAAAAAAAFYRLERWADRLESMGGKY
notes: Insoluble without the MBP fusion partner; dimer by SAXS; also called NTD; rArc-NTD; source: E. coli BL21(DE3)-RIPL, purified (details in S1 Protocol); not shown: His6, N-terminal, kept; MBP, N-terminal, kept
stoichiometry N [7]: 2
